Measured values reported in the supplement of paper PMC9233669.
Fewer inactive variants are shown than the library holds.

What was measured:
biotinyl-Phe-oxazolone = experiment: self-aminoacylation, catalytic enhancement (BFO) (fold over background); higher = more active; k-Seq, kA / k0A0; sequences stand for … in GGGAAUGGAUCCACAUCUACGAAUUC…UUCACUGCAGACUUGACGAAGCUG
In short: (§1)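 Mutagenized RNA pools with a 21-nt variable region (0.43 μM) reacted with each biotinyl-aminoacyl-oxazolone at 2–1250 μM. Reactions ran in 50 μL HEPES/NaCl/KCl/MgCl2/CaCl2 buffer with 5% acetonitrile, pH 6.9–7.0, for 90 minutes at room temperature. Streptavidin-captured RNA was quantified by triplicate qPCR and Illumina sequencing, and per-sequence fraction reacted was fit to a pseudo-first-order model with 1000 bootstraps. Catalytic enhancement is median kA divided by the uncatalyzed rate, the low-activity peak of a bimodal Gaussian fit.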

biotinyl-Ile-oxazolone = experiment: self-aminoacylation, catalytic enhancement (BIO) (fold over background); higher = more active; k-Seq, kA / k0A0; sequences stand for … in GGGAAUGGAUCCACAUCUACGAAUUC…UUCACUGCAGACUUGACGAAGCUG
In short: as §1

biotinyl-Met-oxazolone = experiment: self-aminoacylation, catalytic enhancement (BMO) (fold over background); higher = more active; k-Seq, kA / k0A0; sequences stand for … in GGGAAUGGAUCCACAUCUACGAAUUC…UUCACUGCAGACUUGACGAAGCUG
In short: as §1

biotinyl-Val-oxazolone = experiment: self-aminoacylation, catalytic enhancement (BVO) (fold over background); higher = more active; k-Seq, kA / k0A0; sequences stand for … in GGGAAUGGAUCCACAUCUACGAAUUC…UUCACUGCAGACUUGACGAAGCUG
In short: as §1

biotinyl-Leu-oxazolone = experiment: self-aminoacylation, catalytic enhancement (BLO) (fold over background); higher = more active; k-Seq, kA / k0A0; sequences stand for … in GGGAAUGGAUCCACAUCUACGAAUUC…UUCACUGCAGACUUGACGAAGCUG
In short: as §1

biotinyl-Trp-oxazolone = experiment: self-aminoacylation, catalytic enhancement (BWO) (fold over background); higher = more active; k-Seq, kA / k0A0; sequences stand for … in GGGAAUGGAUCCACAUCUACGAAUUC…UUCACUGCAGACUUGACGAAGCUG
In short: as §1

Sequence | self-aminoacylation (biotinyl-Phe-oxazolone) | self-aminoacylation (biotinyl-Ile-oxazolone) | self-aminoacylation (biotinyl-Met-oxazolone) | self-aminoacylation (biotinyl-Val-oxazolone) | self-aminoacylation (biotinyl-Leu-oxazolone) | self-aminoacylation (biotinyl-Trp-oxazolone)
GUACUUCAAACAAUCGGUCUA [Fam1A.1 aminoacylation ribozyme variant] | 4.84 | 1.17 | 0.943 | 0.997 | 0.933 | 3.66
GUACUUCAAACAAUCGGUUUG [Fam1A.1 aminoacylation ribozyme variant] | 40.2 | 1.85 | 1.66 | 1.59 | 1.89 | 27.8
GUACUUCAAACAGUCGGUCUG [Fam1A.1 aminoacylation ribozyme variant] | 1.14 | 1.32 | 1.41 | 1.22 | 1.3 | 1.5
GUUACCCAGGUCAUCGAGUGA [Fam2.1 aminoacylation ribozyme variant] | 22.2 | 4.24 | 6.63 | 3.78 | 6.2 | 7.86
GUUACCCUGGUAAUCGAGUGA [Fam2.1 aminoacylation ribozyme variant] | 58.5 | 4.93 | 10.7 | 4.77 | 10.5 | 13.9
GUUACCCUGGUCAUAGAGUGA [Fam2.1 aminoacylation ribozyme variant] | 85.2 | 5.89 | 11.1 | 5.04 | 12.6 | 14.1
GUUACCCUGGUCAUCCAGUGA [Fam2.1 aminoacylation ribozyme variant] | 52.7 | 4.66 | 7.39 | 4.7 | 7.84 | 9.02
GUUACCCUGGUCAUCGAAUGA [Fam2.1 aminoacylation ribozyme variant] | 1.45 | 1.58 | 1.52 | 1.81 | 1.84 | 2.55
GUUACCCUGGUCAUCGACUGA [Fam2.1 aminoacylation ribozyme variant] | 0.937 | 1.2 | 1.4 | 1.21 | 1.45 | 1.01
GUUACCCUGGUCAUCGAGUGU [Fam2.1 aminoacylation ribozyme variant] | 825 | 31.5 | 111 | 37.1 | 114 | 102
GUUACCCUGGUCAUCGUGUGA [Fam2.1 aminoacylation ribozyme variant] | 30.3 | 2.6 | 4.3 | 3.08 | 4.75 | 6.06
GUUACCCUGGUCCUCGAGUGA [Fam2.1 aminoacylation ribozyme variant] | 42.7 | 3.36 | 6.3 | 4.16 | 5.97 | 6.45
GUUACCCUGUUCAUCGAGUGA [Fam2.1 aminoacylation ribozyme variant] | 37.5 | 3.34 | 7 | 3.5 | 7.51 | 8.4
GUUACCGUGGUCAUCGAGUGA [Fam2.1 aminoacylation ribozyme variant] | 55.3 | 5.33 | 9.15 | 5.58 | 10.6 | 10.1
GUUACCUUGGUCAUCGAGUGA [Fam2.1 aminoacylation ribozyme variant] | 21.1 | 4.39 | 7.16 | 4.21 | 7.14 | 9.03
GUUCACAUAGGUCAUCGGGUG [Fam2.2 aminoacylation ribozyme variant] | 51.1 | 4.89 | 6.87 | 4.64 | 8.18 | 8.49
GUUCACCUAGAUCAUCGGGUG [Fam2.2 aminoacylation ribozyme variant] | 6.53 | 2.6 | 2.87 | 2.75 | 2.92 | 3.29
GUUCACCUAGGGCAUCGGGUG [Fam2.2 aminoacylation ribozyme variant] | 23.4 | 3.29 | 3.44 | 3.42 | 3.57 | 4.28
GUUCACCUAGGUCAUCGGGGG [Fam2.2 aminoacylation ribozyme variant] | 6.24 | 2.93 | 4.28 | 3.43 | 5.9 | 4.61
GUUCACCUAGGUCAUCUGGUG [Fam2.2 aminoacylation ribozyme variant] | 8.36 | 1.71 | 2.62 | 1.71 | 2.56 | 2.12
GUUCACCUAGGUCGUCGGGUG [Fam2.2 aminoacylation ribozyme variant] | 11 | 1.67 | 2.44 | 2.1 | 2.04 | 2.08
GUUCACGUAGGUCAUCGGGUG [Fam2.2 aminoacylation ribozyme variant] | 30.3 | 3.06 | 4.57 | 4.2 | 4.45 | 5.39
GUUCACUUAGGUCAUCGGGUG [Fam2.2 aminoacylation ribozyme variant] | 27.9 | 3.48 | 4.97 | 3.12 | 6.01 | 5.21
GUUCUCCUAGGUCAUCGGGUG [Fam2.2 aminoacylation ribozyme variant] | 55.1 | 6.21 | 9.55 | 6.51 | 13.7 | 9.42
UAGAUUGCUAAUAGUCGCAAG [Fam3.1 aminoacylation ribozyme variant] | 1.77 | 1.19 | 1.19 | 1.19 | 1.16 | 1.13
UAGUGUGCUAAUAGUCGCAAG [Fam3.1 aminoacylation ribozyme variant] | 2.94 | 1.83 | 1.88 | 1.76 | 1.21 | 2.19

Sequence | self-aminoacylation (biotinyl-Phe-oxazolone) | self-aminoacylation (biotinyl-Ile-oxazolone) | self-aminoacylation (biotinyl-Met-oxazolone) | self-aminoacylation (biotinyl-Val-oxazolone) | self-aminoacylation (biotinyl-Leu-oxazolone) | self-aminoacylation (biotinyl-Trp-oxazolone)
UAGUUCGCUAAUAGUCGCAAG [Fam3.1 aminoacylation ribozyme variant] | 6.84 | 1.81 | 1.55 | 1.86 | 1.81 | 1.88
UAGUUUGCUAAUAGUCGAAAG [Fam3.1 aminoacylation ribozyme variant] | 6.07 | 1.33 | 1.09 | 1.15 | 1 | 3.49
UAGUUUGCUAAUAGUCGCAAC [Fam3.1 aminoacylation ribozyme variant] | 1.43 | 1.25 | 1.18 | 1.31 | 1.06 | 1.34
UAGUUUGCUAAUAGUCGCAAU [Fam3.1 aminoacylation ribozyme variant] | 3.04 | 1.52 | 1.38 | 1.61 | 1.28 | 1.88
UAGUUUGCUAAUGGUCGCAAG [Fam3.1 aminoacylation ribozyme variant] | 1.19 | 1.11 | 1.17 | 1.1 | 0.81 | 1.22
UAGUUUGCUAAUUGUCGCAAG [Fam3.1 aminoacylation ribozyme variant] | 1.62 | 1.25 | 1.29 | 1.17 | 1.39 | 1.51
UAUCACCUAGGUCAUCGGGUG [Fam2.2 aminoacylation ribozyme variant] | 15.1 | 3.72 | 4.75 | 3.88 | 4.88 | 5.87
UCACACUUAAAGCAAUCGGUC [Fam1B.1 aminoacylation ribozyme variant] | 0.642 | 0.86 | 0.737 | 0.844 | 0.761 | 0.575
UCACACUUCAAGCAAUAGGUC [Fam1B.1 aminoacylation ribozyme variant] | 0.918 | 0.671 | 0.434 | 0.668 | 0.495 | 0.559
UCACACUUCAAGCAAUCGGUC [Fam1B.1 aminoacylation ribozyme variant] | 49.8 | 0.996 | 0.998 | 1.2 | 1.43 | 22
UCACACUUCAAGCAAUCGGUU [Fam1B.1 aminoacylation ribozyme variant] | 8.21 | 1.3 | 1.48 | 1.58 | 1.6 | 6.74
UUACUUCAAACAAUAGGUCUG [Fam1A.1 aminoacylation ribozyme variant] | 1.69 | 1.2 | 1.26 | 1.25 | 1.08 | 1.07
UUACUUCAAACAAUCGUUCUG [Fam1A.1 aminoacylation ribozyme variant] | 2.05 | 0.996 | 1 | 0.975 | 0.983 | 1.05
UUACUUCAAACUAUCGGUCUG [Fam1A.1 aminoacylation ribozyme variant] | 1.25 | 1.25 | 0.916 | 1.08 | 1.04 | 1.26
UUCCACCUAGGUCAUCGGGUG [Fam2.2 aminoacylation ribozyme variant] | 48.6 | 5.71 | 7.25 | 5.42 | 7.41 | 7.67
UUGACCCUGGUCAUCGAGUGA [Fam2.1 aminoacylation ribozyme variant] | 129 | 7.37 | 19.9 | 7.21 | 19.1 | 18.7
UUUACACUGGUCAUCGAGUGA [Fam2.1 aminoacylation ribozyme variant] | 23.9 | 3.29 | 5.97 | 3 | 5.04 | 7.26
UUUACCAUGGUCAUCGAGUGA [Fam2.1 aminoacylation ribozyme variant] | 20.9 | 4.43 | 7.28 | 4.57 | 7.39 | 9.91
UUUACCCUCGUCAUCGAGUGA [Fam2.1 aminoacylation ribozyme variant] | 10.2 | 2.46 | 3.25 | 2.35 | 2.68 | 4.02
UUUACCCUGGACAUCGAGUGA [Fam2.1 aminoacylation ribozyme variant] | 14.9 | 2.68 | 4.86 | 3.1 | 4.69 | 5.78
UUUACCCUGGCCAUCGAGUGA [Fam2.1 aminoacylation ribozyme variant] | 16.7 | 2.06 | 3.22 | 2.52 | 3.97 | 5.04
UUUACCCUGGUCAUCGAGUGC [Fam2.1 aminoacylation ribozyme variant] | 16.5 | 2.52 | 6.81 | 2.99 | 6.26 | 5.5
UUUACCCUGGUCAUCGAUUGA [Fam2.1 aminoacylation ribozyme variant] | 0.947 | 1.06 | 0.837 | 1.13 | 1.08 | 1.09
UUUACCCUGGUCAUGGAGUGA [Fam2.1 aminoacylation ribozyme variant] | 9.54 | 2.58 | 3.46 | 2.44 | 3.04 | 3.99
UUUACCCUGGUCCUCGAGUGA [Fam2.1 aminoacylation ribozyme variant] | 17.8 | 1.96 | 4.26 | 2.58 | 3.67 | 4.06
